Among the data in paper PMC3280255 are fold decrease in ability to compete, against wildtype 70K values, retold here.

This test has as its target FUD, a 56-residue recombinant polypeptide based on the Functional Upstream Domain of the F1 adhesin of Streptococcus pyogenes (Streptococcus pyogenes). The test can be described thus: ELISA; competitive enzyme-linked assay: high binding plates coated overnight at 4°C with 10 µg/mL FN; 0.3 nM biotinylated FUD with increasing concentrations of soluble 70K proteins; binding relative to no competitor. In general terms: An ELISA detects its analyte on a solid surface through an enzyme-linked reagent.

Regarding “70K I150/242A (Ile-to-Ala mutations in the IGD motifs of 3FNI and 5FNI) (domain or fragment)”, the fold decrease in ability to compete, against wildtype 70K was 2 fold. The figure for “70K I480/572A (Ile-to-Ala mutations in the IGD motifs of 7FNI and 9FNI) (domain or fragment)” is 2 fold.
